Assay results: PMC3815341

Assays:
[1] = test system: CCCCCC(=O)Oc1ccc([N+](=O)[O-])cc1; test: purified protein; conditions: pH 7, 37°C
[2] = test system: CCC(=O)Oc1ccc([N+](=O)[O-])cc1; test: purified protein; conditions: pH 7, 37°C
[3] = test system: CCCC(=O)Oc1ccc([N+](=O)[O-])cc1; test: purified protein; conditions: pH 7, 37°C
[4] = test system: CC(=O)Oc1ccc([N+](=O)[O-])cc1; test: purified protein; conditions: pH 7, 37°C
[5] = substrate: CC(=O)Oc1ccc([N+](=O)[O-])cc1; test: pNP release, initial rates, Michaelis-Menten fit; assay type: biochemical, Rhodopseudomonas palustris; conditions: pH 9, 37°C
[6] = substrate: CCC(=O)Oc1ccc([N+](=O)[O-])cc1; test: pNP release, initial rates, Michaelis-Menten fit; assay type: biochemical, Rhodopseudomonas palustris; conditions: pH 9, 37°C
[7] = substrate: CCCCCC(=O)Oc1ccc([N+](=O)[O-])cc1; test: pNP release, initial rates, Michaelis-Menten fit; assay type: biochemical, Pseudomonas aeruginosa; conditions: pH 8, 37°C
[8] = substrate: CC(=O)Oc1ccc([N+](=O)[O-])cc1; test: pNP release, initial rates, Michaelis-Menten fit; assay type: biochemical, Pseudomonas aeruginosa; conditions: pH 8, 37°C
[9] = substrate: CCCCCCCCCC(=O)Oc1ccc([N+](=O)[O-])cc1; test: pNP release, initial rates, Michaelis-Menten fit; assay type: biochemical, Pseudomonas aeruginosa; conditions: pH 8, 37°C
[10] = substrate: CC(=O)Oc1ccc([N+](=O)[O-])cc1; test: pNP release, initial rates, Michaelis-Menten fit; assay type: biochemical, Streptomyces avermitilis; conditions: pH 8, 37°C
[11] = substrate: CCCCCC(=O)Oc1ccc([N+](=O)[O-])cc1; test: pNP release, initial rates, Michaelis-Menten fit; assay type: biochemical, Rhodopseudomonas palustris; conditions: pH 9, 37°C
[12] = substrate: CCCC(=O)Oc1ccc([N+](=O)[O-])cc1; test: pNP release, initial rates, Michaelis-Menten fit; assay type: biochemical, Rhodopseudomonas palustris; conditions: pH 9, 37°C
[13] = substrate: CC(=O)Oc1ccc([N+](=O)[O-])cc1; test: pNP release, initial rates, Michaelis-Menten fit; assay type: biochemical, Pseudomonas putida
[14] = substrate: CCC(=O)Oc1ccc([N+](=O)[O-])cc1; test: pNP release, initial rates, Michaelis-Menten fit; assay type: biochemical, Pseudomonas putida
[15] = substrate: CCCCCC(=O)Oc1ccc([N+](=O)[O-])cc1; test: pNP release, initial rates, Michaelis-Menten fit; assay type: biochemical, Pseudomonas putida; conditions: pH 8, 37°C
[16] = substrate: CCCCCCCCCC(=O)Oc1ccc([N+](=O)[O-])cc1; test: pNP release, initial rates, Michaelis-Menten fit; assay type: biochemical, Pseudomonas putida; conditions: pH 8, 37°C

Molecule “RpEST-1 (Rhodopseudomonas palustris CGA009)” has a Km [1] of 1900 ± 100 µM, a kcat [1] of 217 ± 11.8 s⁻¹ and a kcat/Km [1] of 114000 M⁻¹ s⁻¹. The Km [2] was 1500 ± 100 µM, the kcat [2] was 307 ± 15.3 s⁻¹ and the kcat/Km [2] was 205000 M⁻¹ s⁻¹. The Km [3] was 500 ± 0 µM, the kcat [3] was 75.5 ± 1.6 s⁻¹ and the kcat/Km [3] was 151000 M⁻¹ s⁻¹. It also gave a Km [4] of 300 ± 0 µM, a kcat [4] of 65.6 ± 1.5 s⁻¹ and a kcat/Km [4] of 219000 M⁻¹ s⁻¹.

B1: RpEST-2 (Rhodopseudomonas palustris CGA009) (protein)
chain: MSEAVMAGAEAFAFDGGKTGVLLVHGFTGSPQSMRYLGERLGERGYSILGPRLPGHGVSPAAMAKTTANDWVNCAEDALLELSAKCDKTFVAGLSMGGTLSLYLAASHPDKVAGVIPINAAVQIDSPDLAGLAYARGLPEFVPGIGSDMVDTSTKELAYDQVPVTCVKQVMGLAATARALLPRIKCPTLVINSRVDHVLSPANATVIANHVGSSRIETLWLDNSYHVATIDNDKDLIAAEIDSFVTRNL
Molecule B1 has a Km [5] of 1400 ± 200 µM, a kcat [5] of 52.7 ± 4.3 s⁻¹ and a kcat/Km [5] of 37600 M⁻¹ s⁻¹. The Km [6] was 4900 ± 1800 µM, the kcat [6] was 24.4 ± 7.8 s⁻¹ and the kcat/Km [6] was 4900 M⁻¹ s⁻¹.

B2: PaEST-1 (Pseudomonas aeruginosa) (protein)
chain: MKRFLLGLVLLLAVAAGVLYFVPATLLASVRTVERGLAGLSEHSVQVDNLEIAYLEGGSEKNPTLLLIHGFGADKDNWLRFARPLTERYHVVALDLPGFGDSSKPQQASYDVGTQAERVANFAAAIGVRRLHLAGNSMGGHIAALYAARHPEQVLSLALIDNAGVMPARKSELFEDLERGENPLVVRQPEDFQKLLDFVFVQQPPLPAPLKRYLGERAVAASAFNAQIFEQLRQRYIPLEPELPKIEAPTLLLWGDRDRVLDVSSIEVMRPLLKRPSVVIMENCGHVPMVERPEETAQHYQAFLDGVRNAQVAGR
In the case of B2, the Km [7] is reported as 1400 ± 400 µM, the kcat [7] is reported as 12.9 ± 2.4 s⁻¹ and the kcat/Km [7] is reported as 9200 M⁻¹ s⁻¹. For the same molecule, the Km [8] was 1400 ± 200 µM, the kcat [8] was 1.9 ± 0.2 s⁻¹ and the kcat/Km [8] was 1300 M⁻¹ s⁻¹. For the same molecule, the Km [9] was 1200 ± 200 µM, the kcat [9] was 9.2 ± 1 s⁻¹ and the kcat/Km [9] was 7600 M⁻¹ s⁻¹.

B3: SavEST-1 (Streptomyces avermitilis MA-4680 = NBRC 14893) (protein)
chain: MTSQHVVGRFFDVQGGQVYAHVREGDGPALIFLHYWGGSRRTWIPVLQRLDPGQGFVAYDQRGWGGSTSVPGPYDLEQLADDAQRVVDALGYSRYVLVGHSMGGKVAQILAARKPAGLRGVVLVAPAPPAPIGVTEQVQETVSHAYDNEEAVLQSIDLMLTRGGLTPELRRQVVEDSLRGGDEARLEWPRRGLVQDVSAGVSAIEVPVLVLAGSHDKVDPPTVLADHLLPLIPTATLTVLKDTGHLSPLEVPDQVAAHIGAFVAQL
B3 showed a Km [10] of 300 ± 0 µM, a kcat [10] of 2.9 ± 0.1 s⁻¹ and a kcat/Km [10] of 9500 M⁻¹ s⁻¹.

B4: RpEST-3 (Rhodopseudomonas palustris CGA009) (protein)
chain: MPSFDHAGVNIAYLDEGEGEPILLIHGFASNKNVNWVYPSWLSELKRTGRRVIAIDNRGHGESSKLYDPNDYTLEAMASDAVALMDHLGIARADVMGYSMGARIGANLARRQEQRVRSVVLGGLGMGLLSNEGRPGENVARALEADALDDVTDPVGRTFRAFADQTRSDRKALAACMRGSRGLMSREDAAQIAVPVLIAVGTDDDVAGSAHELGDIIPGSQVLDIPRRDHMRAVGDRVYKEGVVDFLARRP
B4 was tested, and the Km [11] was 2100 ± 300 µM, the kcat [11] was 5 ± 0.4 s⁻¹ and the kcat/Km [11] was 2400 M⁻¹ s⁻¹. The Km [12] was 3600 ± 400 µM, the kcat [12] was 7.2 ± 0.7 s⁻¹ and the kcat/Km [12] was 2000 M⁻¹ s⁻¹.

B5: PpEST-2 (Pseudomonas putida KT2440) (protein)
chain: MSTFVTRDGTSIYFKDWGSGKPVLFSHGWPLDADMWDSQMEFLASRGYRAIAFDRRGFGRSSQPWNGYDYDTFADDIAQLIEHLDLRDVTLVGFSMGGGDVSRYIARHGSERVAGLVLLGAVTPVFGKRDDNPDGVDLSVFEGIRAGLRADRAQFIADFATPFYGLNHGQQVSQGVQTQTLNIALMASIKGTLDCVTAFSETDFRPDMAKVDVPTLVIHGDDDQIVPFETTGKQAAELIRGAELKVYAGAPHGFAVTHAQQLNEDLLAFLQR
Work on B5 yielded a Km ([13]; pH 9, 37°C) of 1100 ± 100 µM, a kcat ([13]; pH 9, 37°C) of 12.5 ± 0.5 s⁻¹ and a kcat/Km ([13]; pH 9, 37°C) of 11400 M⁻¹ s⁻¹. The Km ([14]; pH 9, 37°C) was 1000 ± 100 µM, the kcat ([14]; pH 9, 37°C) was 3 ± 0.1 s⁻¹ and the kcat/Km ([14]; pH 9, 37°C) was 3000 M⁻¹ s⁻¹.

B6: PpEST-1 (Pseudomonas putida KT2440) (protein)
chain: MRNRLVLLPGWGLGTAALEPLAASLRAQDARLQVELMPLPELAHSDVQAWIDHLDRKLPNDVWLGGWSLGGMLASALAHKRGDHCCGLLTLASNPSFLARPDWPHGMAEDTFGTFLDGCRNHTQVTLKRFRTLCSDGALQPRTLLRQLGVGVPETDPLYLATGLEVLAKLDTREALQAYDGPQLHLFAGSDALVPAEAAKALSELLPDVEVGMVEDSSHAFLLEYPQELAAGIKSFLHESGDD
B6 showed a Km ([13]; pH 8, 37°C) of 1400 ± 100 µM, a kcat ([13]; pH 8, 37°C) of 3.9 ± 0.2 s⁻¹ and a kcat/Km ([13]; pH 8, 37°C) of 2800 M⁻¹ s⁻¹. It also gave a Km ([14]; pH 8, 37°C) of 3000 ± 400 µM, a kcat ([14]; pH 8, 37°C) of 3.1 ± 0.3 s⁻¹ and a kcat/Km ([14]; pH 8, 37°C) of 1000 M⁻¹ s⁻¹.

B7: PpEST-3 (Pseudomonas putida KT2440) (protein)
chain: MIQPVAERTPAGTSYLDVGQGQPVVLIHGVGLNKEMWGGQFVGLANDYRVIAYDMLGHGQSRVPAADTPLEGYADQLAELLDHLQIAQATVIGFSMGGLVARAFALNYPQRLAALVVLNSVFNRTPEQSAGVIARAAQAAELGPDANVDAALDRWFSREYKAANPAQVAAIRQVLASNDPQGYHTTYSLFATQDMYRADDLGSIQVPTLIATGELDSGSTPAMTRQLAACIPGARSVVLAEQRHMMPVEAPREVNKMLLDFLTQARTLTESAKGIVA
For B7, the Km [15] was 200 ± 0 µM, the kcat [15] was 12.1 ± 0.3 s⁻¹ and the kcat/Km [15] was 60400 M⁻¹ s⁻¹. The Km ([13]; pH 8, 37°C) was 1000 ± 100 µM, the kcat ([13]; pH 8, 37°C) was 6.2 ± 0.3 s⁻¹ and the kcat/Km ([13]; pH 8, 37°C) was 6200 M⁻¹ s⁻¹. It also gave a Km [16] of 800 ± 100 µM, a kcat [16] of 8.7 ± 0.4 s⁻¹ and a kcat/Km [16] of 10900 M⁻¹ s⁻¹. The Km ([14]; pH 8, 37°C) was 100 ± 0 µM, the kcat ([14]; pH 8, 37°C) was 6.8 ± 0.1 s⁻¹ and the kcat/Km ([14]; pH 8, 37°C) was 67900 M⁻¹ s⁻¹.
